Measurements reported in patent US20200129630A1, “METHODS FOR TREATING CANCER” (BicycleRD Limited, priority 2018, published 2020).
Numbered stars: 1 amine (or outer) side, 2 acyl side, 3 side chain; on linkers, the order of the positions; unused ones are H or OH. Bridge positions count the residues as written; N and C are the ends. Square brackets hold non-standard residues; d marks the D form. Peptide text beside a SMILES is read from it. * marks the point of attachment. X1 = COc1cc2cc(c1Cl)N(C)C(=O)C[C@H](OC(=O)[C@H](C)N(C)C(=O)CCSSC(C)CCC(=O)*)[C@]1(C)O[C@H]1[C@H](C)[C@@H]1C[C@@](O)(NC(=O)O1)[C@H](OC)/C=C/C=C(\C)C2; 1Nal = N[C@@H](Cc1cccc2ccccc12)C(=O)O; TBMB = c1c(C[*:1])cc(C[*:3])cc1C[*:2]; Tle = CC(C)(C)[C@H](N)C(=O)O; βAla = NCCC(=O)O; Sar = CNCC(=O)O

Experiment: Non-GLP toxicity studies, mouse
Assay type: in vivo
Description: These include in vitro tissue microarray in human, rat and monkey tissues and in vitro and in vivo assessment of immunogenicity. In vivo assessments include single dose toxicity in mice and rats, multiple dose range finding studies in mice, rats, dogs and monkeys (non-GLP) and GLP-compliant multiple dose studies in rats and monkeys consisting of 28-day on study phase with a 28-day recovery period.

## COc1cc2cc(c1Cl)N(C)C(=O)C[C@H](OC(=O)[C@H](C)N(C)C(=O)CCSSC(C)CCC(=O)NCCC(=O)N(C)CC(=O)N(C)CC(=O)N(C)CC(=O)N(C)CC(=O)N(C)CC(=O)N(C)CC(=O)N(C)CC(=O)N(C)CC(=O)N(C)CC(=O)N(C)CC(=O)N[C@@H](C)C(=O)N[C@H]1CSCc3cc4cc(c3)CSC[C@H](NC(=O)[C@@H](C)NC(=O)[C@H](Cc3cccc5ccccc35)NC(=O)[C@H](CCC(=O)O)NC(=O)[C@H](CC(N)=O)NC(=O)[C@@H](C)NC1=O)C(=O)N[C@@H](CCC(=O)O)C(=O)N[C@@H](CC(=O)O)C(=O)N[C@@H](Cc1ccccc1)C(=O)N[C@@H](Cc1ccc(O)cc1)C(=O)N[C@@H](CC(=O)O)C(=O)N[C@@H](C(C)(C)C)C(=O)N[C@H](C(N)=O)CSC4)[C@]1(C)O[C@H]1[C@H](C)[C@@H]1C[C@@](O)(NC(=O)O1)[C@H](OC)/C=C/C=C(\C)C2 (some centres unmarked) [BT1718] ({X1-βAla}-[Sar][Sar][Sar][Sar][Sar][Sar][Sar][Sar][Sar][Sar]AC[dA]NE[1Nal][dA]CEDFYD[Tle]C-NH2; linker 12-18-25 via TBMB (inferred))
mice, single dose of 13.4 mg/kg (40.2 mg/m^2)
  GI findings: intestinal mucosal mitosis
Mouse 3.3 mg/kg, 10 mg/m^2 three times weekly
  renal findings: Moderate renal tubule degeneration and epithelial mitosis
